From ChEMBL document CHEMBL1124124, “Synthesis and interaction with uridine phosphorylase of 5'-deoxy-4',5-difluorouridine, a new prodrug of 5-fluorouracil” (J Med Chem, 1988)

Columns and labels:
[1] = Kinetic constant for interaction with Urd phosphorylase from Lewis lung carcinoma
[2] = molecular target: Uridine phosphorylase 1 (Mus musculus) (UniProt P52624); assay: as above; details: mouse
Sequence of Uridine phosphorylase 1 (Mus musculus) (P52624 whole entry, looked up): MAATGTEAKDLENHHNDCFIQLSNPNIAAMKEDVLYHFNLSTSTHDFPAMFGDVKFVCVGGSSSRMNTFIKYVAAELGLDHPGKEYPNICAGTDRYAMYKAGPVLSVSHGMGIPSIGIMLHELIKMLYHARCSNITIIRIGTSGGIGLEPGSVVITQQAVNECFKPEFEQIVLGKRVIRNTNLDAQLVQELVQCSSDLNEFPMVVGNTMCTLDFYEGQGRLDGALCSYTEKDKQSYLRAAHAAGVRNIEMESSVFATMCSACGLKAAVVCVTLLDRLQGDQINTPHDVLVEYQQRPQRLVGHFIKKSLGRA

B1: Uridine phosphorylase 1 (Homo sapiens), Q16831 (protein)
chain: MAATGANAEKAESHNDCPVRLLNPNIAKMKEDILYHFNLTTSRHNFPALFGDVKFVCVGGSPSRMKAFIRCVGAELGLDCPGRDYPNICAGTDRYAMYKVGPVLSVSHGMGIPSISIMLHELIKLLYYARCSNVTIIRIGTSGGIGLEPGTVVITEQAVDTCFKAEFEQIVLGKRVIRKTDLNKKLVQELLLCSAELSEFTTVVGNTMCTLDFYEGQGRLDGALCSYTEKDKQAYLEAAYAAGVRNIEMESSVFAAMCSACGLQAAVVCVTLLNRLEGDQISSPRNVLSEYQQRPQRLVSYFIKKKLSKA
- Km [1]: 0.6 mM
- Km [2]: 6 mM
